Measurements taken from publication PMC10871247 (bioRxiv, 2024).
Where a chain is given by its changes, count along the chain named. Numbers in names are those of the source.

Assays:
native gel or EMSA = target: the molecule itself; test: native gel or EMSA
SEC = target: the molecule itself; test: SEC
native MS = target: the molecule itself; test: native MS

B1: 3×Ala-MxEnc (natural protein, Myxococcus xanthus)
chain: MPDFLGHAENPLREEEWARLNETVIQVARRSLVGRRILDIYGPLGAGVQTVPYDEFQGVSPGAVDIVGEQETAMVFTDARKFKTIPIIYKDFLLHWRDIEAARTHNMPLDVSAAAGAAALCAQQEDELIFYGDARLGYEGLMTANGRLTVPLGDWTSPGGGFQAIVEATRKLNEQGHFGPYAVVLSPRLYSQLHRIYEAAAVLEIETIRQLASDGVYQSNRLRGESGVVVSTGRENMDLAVSMDMVAAYLGASRMNHPFRVLEALLLRIKHPDAICTLEGAGATERR
Q: Does B1 bind (native gel or EMSA)?
A: Result: binds

B2: 3×Asp-MxEnc (natural protein, Myxococcus xanthus)
chain: B1 chain with A199D, A200D, A201D
Q: Does B2 bind (SEC)?
A: Result: binds

B3: 3×His-MxEnc (K199H/T200H/G201H triple point mutant of the M. xanthus encapsulin) (natural protein, Myxococcus xanthus)
chain: B1 chain with A199H, A200H, A201H
Q: For B3, which “stoichiometry N” value (native MS) is on record?
A: Its value is 60.
